B1: C2CD2L (parent)
chain: LTLKVLRSSSCGDTELLGQATLPV
B2: SCNN1D (parent)
chain: IRVMVHGRNHTPFLGHHSFSVRPG

Variants of: B1
Experiment: protein stability index of a GFP-peptide fusion (GPS, HEK-293T) (PSI 1-6); higher = more stable
Conditions: c terminus: a fixed tail appended
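Note: lentivirally expressed fusions sorted by FACS into six bins by GFP to DsRed ratio, PSI derived from sequencing read proportions per bin multiplied by bin number.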

Row | Variant | protein stability index
1 | LTLKVLRSSSCGDTYLLGQATLPV [E15Y] | 2.19
2 | LTLKVLCSSSCGDTELLGQATLPV [R7C] | 3.71
3 | LTLKVPRSSSCGDTELLGQATLPV [L6P] | 2.24
4 | LHLKVLRSSSCGDTELLGQATLPV [T2H] | 1.3
5 | LALKVLRSSSCGDTELLGQATLPV [T2A] | 1.66
6 | LTLKVLRSSSCGDTELLGQAYLPV [T21Y] | 3.37
7 | LTLKVLRSSSCGDTELLGQAALPV [T21A] | 1.09
8 | LTLKVLRSWSCGDTELLGQATLPV [S9W] | 3.38
9 | LTLKVLRWSSCGDTELLGQATLPV [S8W] | 4.16
10 | LTLKVLRSSSCGDTELLGQATLPA [V24A] | 2.59
11 | LTLKVLRSSSCGDTELLGQATLPE [V24E] | 1.54
12 | LTLKVLRSSSCGDTELLGQATLPH [V24H] | 1.37
13 | LTLKNLRSSSCGDTELLGQATLPV [V5N] | 2.26
14 | LTLKKLRSSSCGDTELLGQATLPV [V5K] | 2.17
15 | LTLKVLRSSSCGDTELVGQATLPV [L17V] | 2.44
16 | LTLKVLRSSSCGDTELQGQATLPV [L17Q] | 2.1
17 | LTQKVLRSSSCGDTELLGQATLPV [L3Q] | 2.87

Row | Variant | protein stability index
18 | LTHKVLRSSSCGDTELLGQATLPV [L3H] | 2.51
19 | LTLKVLRSSSCDDTELLGQATLPV [G12D] | 2.05
20 | LTLKVLRSSSCNDTELLGQATLPV [G12N] | 1.56
21 | LTLKVLRSSSCGDTELLGQATLCV [P23C] | 3.55
22 | LTLKVLRSSSCGDTELLTQATLPV [G18T] | 1.18
23 | KTLKVLRSSSCGDTELLGQATLPV [L1K] | 1.99
24 | WTLKVLRSSSCGDTELLGQATLPV [L1W] | 2.67
25 | TTLKVLRSSSCGDTELLGQATLPV [L1T] | 2.04
26 | RTLKVLRSSSCGDTELLGQATLPV [L1R] | 2.29
27 | LTLVVLRSSSCGDTELLGQATLPV [K4V] | 2.8
28 | LTLKVLRSSSCGDTEILGQATLPV [L16I] | 2.19
29 | LTLKVLRSSSCGDTEFLGQATLPV [L16F] | 2.34
30 | LTLKVLRSSSNGDTELLGQATLPV [C11N] | 2.04
31 | LTLKVLRSSSCGDAELLGQATLPV [T14A] | 3.11
32 | LTLKVLRSSSCGDYELLGQATLPV [T14Y] | 3.11
33 | LTLKVLRSSSCGDSELLGQATLPV [T14S] | 1.8

Variants of: B2
Experiment: as above
Conditions: c terminus: a fixed tail appended

Row | Variant | protein stability index
34 | LRVMVHGRNHTPFLGHHSFSVRPG [I1L] | 1.31
35 | FRVMVHGRNHTPFLGHHSFSVRPG [I1F] | 1.82
36 | DRVMVHGRNHTPFLGHHSFSVRPG [I1D] | 2.63
37 | HRVMVHGRNHTPFLGHHSFSVRPG [I1H] | 2.74
38 | QRVMVHGRNHTPFLGHHSFSVRPG [I1Q] | 3
39 | MRVMVHGRNHTPFLGHHSFSVRPG [I1M] | 1.89
40 | ARVMVHGRNHTPFLGHHSFSVRPG [I1A] | 2.28
41 | ERVMVHGRNHTPFLGHHSFSVRPG [I1E] | 2.04
42 | PRVMVHGRNHTPFLGHHSFSVRPG [I1P] | 2.61
43 | RRVMVHGRNHTPFLGHHSFSVRPG [I1R] | 3.65
44 | SRVMVHGRNHTPFLGHHSFSVRPG [I1S] | 3.19
45 | NRVMVHGRNHTPFLGHHSFSVRPG [I1N] | 2.85
46 | TRVMVHGRNHTPFLGHHSFSVRPG [I1T] | 2.62
47 | WRVMVHGRNHTPFLGHHSFSVRPG [I1W] | 2.71
48 | KRVMVHGRNHTPFLGHHSFSVRPG [I1K] | 2.21
49 | IRVMVHGRNHQPFLGHHSFSVRPG [T11Q] | 2.44
50 | IRVMVHGRNHYPFLGHHSFSVRPG [T11Y] | 3.8
51 | IRVMVHGRNHFPFLGHHSFSVRPG [T11F] | 2.59
52 | IRVMVHGRNHTPHLGHHSFSVRPG [F13H] | 1.36
53 | IRVMVHGRNHTPYLGHHSFSVRPG [F13Y] | 2.77
54 | IRVMVHGRNHTPALGHHSFSVRPG [F13A] | 4.08

Row | Variant | protein stability index
55 | IRVMVHGRNHTPGLGHHSFSVRPG [F13G] | 1.96
56 | IRVMVHGRNHTPNLGHHSFSVRPG [F13N] | 1.77
57 | IRVMVHGRNHTPRLGHHSFSVRPG [F13R] | 1
58 | IRVMVHGRNHTPLLGHHSFSVRPG [F13L] | 1.19
59 | IRVMVHCRNHTPFLGHHSFSVRPG [G7C] | 1.7
60 | IRVMVHMRNHTPFLGHHSFSVRPG [G7M] | 2.97
61 | IRVMVHTRNHTPFLGHHSFSVRPG [G7T] | 1.92
62 | IRVMVHSRNHTPFLGHHSFSVRPG [G7S] | 1.72
63 | IRVMVHRRNHTPFLGHHSFSVRPG [G7R] | 2.12
64 | IRVMVHIRNHTPFLGHHSFSVRPG [G7I] | 2.67
65 | IRVMVHKRNHTPFLGHHSFSVRPG [G7K] | 2.48
66 | IRVMVHERNHTPFLGHHSFSVRPG [G7E] | 2.05
67 | IRVMVHGRNHTIFLGHHSFSVRPG [P12I] | 3.72
68 | IRVMVHGRNHTYFLGHHSFSVRPG [P12Y] | 1.97
69 | IRVMVHGRNHTRFLGHHSFSVRPG [P12R] | 3.86
70 | IRVMVHGRNHTGFLGHHSFSVRPG [P12G] | 4.32
71 | IRVMVHGRNHTHFLGHHSFSVRPG [P12H] | 1.48
72 | IRVMVPGRNHTPFLGHHSFSVRPG [H6P] | 2.34
73 | IRVMVAGRNHTPFLGHHSFSVRPG [H6A] | 2.13
74 | IRVMVQGRNHTPFLGHHSFSVRPG [H6Q] | 3.67
75 | IRVMVCGRNHTPFLGHHSFSVRPG [H6C] | 2.51

Row | Variant | protein stability index
76 | IRVMVFGRNHTPFLGHHSFSVRPG [H6F] | 1.91
77 | IRVMVTGRNHTPFLGHHSFSVRPG [H6T] | 2.35
78 | IRVMVKGRNHTPFLGHHSFSVRPG [H6K] | 3.76
79 | IRVMVDGRNHTPFLGHHSFSVRPG [H6D] | 2.53
80 | IRVMVYGRNHTPFLGHHSFSVRPG [H6Y] | 2.35
81 | IRVMVEGRNHTPFLGHHSFSVRPG [H6E] | 2.27
82 | IDVMVHGRNHTPFLGHHSFSVRPG [R2D] | 2.76
83 | INVMVHGRNHTPFLGHHSFSVRPG [R2N] | 2.13
84 | IGVMVHGRNHTPFLGHHSFSVRPG [R2G] | 2.91
85 | ITVMVHGRNHTPFLGHHSFSVRPG [R2T] | 1.51
86 | IAVMVHGRNHTPFLGHHSFSVRPG [R2A] | 2.26
87 | IPVMVHGRNHTPFLGHHSFSVRPG [R2P] | 1.76
88 | ILVMVHGRNHTPFLGHHSFSVRPG [R2L] | 2.6
89 | IQVMVHGRNHTPFLGHHSFSVRPG [R2Q] | 1.58
90 | IRVMVHGRYHTPFLGHHSFSVRPG [N9Y] | 4.19
91 | IRVMVHGRCHTPFLGHHSFSVRPG [N9C] | 1.89
92 | IRVMVHGRVHTPFLGHHSFSVRPG [N9V] | 3.7
93 | IRVMVHGRGHTPFLGHHSFSVRPG [N9G] | 2.67
94 | IRVMVHGREHTPFLGHHSFSVRPG [N9E] | 3.01

Reference: the supplement of paper PMC10567573
